Assay results taken from paper PMC8421406, “C9orf72-derived arginine-rich poly-dipeptides impede phase modifiers” (Nature Communications, 2021).
Each block holds one binder with its values, some of them ahead of it.

Key:
Conditions in all cases: both partners purified
[1] = target: T1, mCh:FUS-LC (mCherry fusion LC-domain of FUS, residue 2–214), as hydrogel (UniProt P35637 2-214); assay: hydrogel binding assay; 1 µM purified GFP-fused protein pipetted onto hydrogel droplets of the mCherry-fused LC-domain, overnight, confocal microscopy; ± Kapβ2 (0.1, 0.3, 1.0 µM) ± PR20; 20 mM Tris-HCl pH 7.5, 150 mM NaCl, 20 mM β-mercaptoethanol, 0.1 mM PMSF, 0.5 mM EDTA
T1 construct: fused in sarcoma (FUS), LC-domain, residue 2–214; Polymerised in the hydrogel; plasmid from the Steven L. McKnight Laboratory; source: E. coli BL21(DE3), purified (Ni-NTA Agarose), prepared as hydrogel droplets; not shown: mCherry, N-terminal, kept
T1 sequence (looked up): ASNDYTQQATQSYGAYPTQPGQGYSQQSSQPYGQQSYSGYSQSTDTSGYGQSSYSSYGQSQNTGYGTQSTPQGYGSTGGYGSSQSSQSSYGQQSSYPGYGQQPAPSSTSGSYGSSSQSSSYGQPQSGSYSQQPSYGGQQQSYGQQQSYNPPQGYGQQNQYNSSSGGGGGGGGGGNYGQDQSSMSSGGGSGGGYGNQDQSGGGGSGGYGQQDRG

[2] = target: T2, Kapβ2 (ΔLoop, residues 321–371 were replaced with GGSGGSGS linker) (UniProt Q92973-2 1-320; Q92973-2 372-890); assay: ITC; 200 μM MBP:PR18 titrated into 20 μM Kapβ2 (ΔLoop) in the cell; 25 °C; 20 mM HEPES pH 7.4, 150 mM NaCl, 10% glycerol, 2 mM β-mercaptoethanol; 19 injections of 2 μL
T2 construct: karyopherin-β2 (Kapβ2), the part before the loop, up to residue 320; linker that replaces residues 321–371; karyopherin-β2 (Kapβ2), the part after the loop, from residue 372; source: E. coli BL21(DE3), purified; not shown: GST, N-terminal, cleaved
T2 chain: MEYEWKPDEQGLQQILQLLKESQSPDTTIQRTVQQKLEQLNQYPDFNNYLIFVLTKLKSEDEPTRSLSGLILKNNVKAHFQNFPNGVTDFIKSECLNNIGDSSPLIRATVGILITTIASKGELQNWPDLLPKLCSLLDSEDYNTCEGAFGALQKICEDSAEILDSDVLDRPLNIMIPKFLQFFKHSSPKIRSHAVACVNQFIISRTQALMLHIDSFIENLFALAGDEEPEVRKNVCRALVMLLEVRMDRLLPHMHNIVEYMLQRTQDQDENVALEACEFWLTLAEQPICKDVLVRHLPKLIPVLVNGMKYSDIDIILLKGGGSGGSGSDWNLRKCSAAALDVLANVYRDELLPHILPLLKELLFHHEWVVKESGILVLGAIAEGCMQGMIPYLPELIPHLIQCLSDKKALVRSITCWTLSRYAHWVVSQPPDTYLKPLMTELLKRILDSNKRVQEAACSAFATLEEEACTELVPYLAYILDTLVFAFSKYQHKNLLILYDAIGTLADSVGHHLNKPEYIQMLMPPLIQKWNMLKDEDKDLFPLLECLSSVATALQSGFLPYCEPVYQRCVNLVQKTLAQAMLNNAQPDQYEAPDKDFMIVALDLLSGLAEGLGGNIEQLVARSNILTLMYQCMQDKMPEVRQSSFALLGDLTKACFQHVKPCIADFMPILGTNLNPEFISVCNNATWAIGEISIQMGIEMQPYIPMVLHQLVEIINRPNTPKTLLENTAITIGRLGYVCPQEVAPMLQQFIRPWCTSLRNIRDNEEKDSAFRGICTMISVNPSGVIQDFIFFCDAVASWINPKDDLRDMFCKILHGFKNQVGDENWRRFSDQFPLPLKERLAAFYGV

karyopherin-β2 (Kapβ2) = target: T3, karyopherin-β2 (Kapβ2) (UniProt Q92973 1-898, for NMR: [U-2H; Ile-δ1-13CH3; Leu, Val-13CH3/12CH3]-labeled); assay: SEC-MALS; Superdex200 10/300 GL; 28 µM Kapβ2 injected in the absence and presence of 55 µM MBP:PR18; 20 mM HEPES pH 7.4, 150 mM NaCl, 2 mM MgCl2, 10% glycerol, 2 mM β-mercaptoethanol
T3 construct: karyopherin-β2 (Kapβ2), nuclear import receptor; Expressed as GST fusion from pGEX6P-1; also called isotopically labeled Kapβ2; source: E. coli BL21(DE3), purified (GSH Sepharose, HRV3C cleavage, anion exchange, gel filtration); not shown: GST, N-terminal, cleaved
T3 sequence (looked up): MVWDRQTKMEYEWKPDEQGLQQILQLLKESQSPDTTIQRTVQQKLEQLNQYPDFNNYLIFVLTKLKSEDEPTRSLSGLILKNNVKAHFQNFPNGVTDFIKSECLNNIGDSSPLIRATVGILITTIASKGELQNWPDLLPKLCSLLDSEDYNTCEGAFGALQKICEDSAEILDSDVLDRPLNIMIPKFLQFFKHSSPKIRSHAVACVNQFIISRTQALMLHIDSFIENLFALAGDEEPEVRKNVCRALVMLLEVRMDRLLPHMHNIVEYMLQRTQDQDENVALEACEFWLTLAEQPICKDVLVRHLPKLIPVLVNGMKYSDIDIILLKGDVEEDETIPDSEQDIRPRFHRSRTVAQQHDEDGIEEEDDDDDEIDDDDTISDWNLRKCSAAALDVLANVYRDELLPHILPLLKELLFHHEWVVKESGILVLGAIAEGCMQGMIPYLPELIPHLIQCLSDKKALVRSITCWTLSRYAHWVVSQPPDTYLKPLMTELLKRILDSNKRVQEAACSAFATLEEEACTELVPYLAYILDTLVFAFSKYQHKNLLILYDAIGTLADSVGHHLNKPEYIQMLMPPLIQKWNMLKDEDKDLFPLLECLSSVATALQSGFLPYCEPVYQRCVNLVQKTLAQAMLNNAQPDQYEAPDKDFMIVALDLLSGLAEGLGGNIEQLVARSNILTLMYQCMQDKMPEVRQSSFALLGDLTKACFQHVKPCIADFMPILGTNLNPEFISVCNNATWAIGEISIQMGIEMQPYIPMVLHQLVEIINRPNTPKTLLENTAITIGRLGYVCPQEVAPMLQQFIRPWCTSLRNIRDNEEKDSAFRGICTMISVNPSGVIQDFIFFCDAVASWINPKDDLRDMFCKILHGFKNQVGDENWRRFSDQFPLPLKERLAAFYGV

- binding result [1]: binds
B1: GFP:FUS-LC:NLS (GFP:FUS-LC fusion FUS-NLS, 501–526) (domain or fragment, UniProt P35637 2-214, looked up)
chain: ASNDYTQQATQSYGAYPTQPGQGYSQQSSQPYGQQSYSGYSQSTDTSGYGQSSYSSYGQSQNTGYGTQSTPQGYGSTGGYGSSQSSQSSYGQQSSYPGYGQQPAPSSTSGSYGSSSQSSSYGQPQSGSYSQQPSYGGQQQSYGQQQSYNPPQGYGQQNQYNSSSGGGGGGGGGGNYGQDQSSMSSGGGSGGGYGNQDQSGGGGSGGYGQQDRGGDRGGFGPGKMDSRGEHRQDRRERPY
notes: fused in sarcoma (FUS), LC-domain, residue 2–214; fused in sarcoma (FUS), NLS, residue 501–526; Built with the In-Fusion HD Cloning Kit; also called FUS-LC fusion NLS; source: E. coli BL21(DE3), purified (Ni-NTA Agarose); not shown: GFP, N-terminal, kept

- binding result [1]: binds
B2: GFP:FUS-LC (green fluorescent protein fusion LC-domain of FUS, residue 2–214) (domain or fragment, UniProt P35637 2-214, looked up)
chain: T1 sequence (looked up)
notes: fused in sarcoma (FUS), LC-domain, residue 2–214; Plasmid from the Steven L. McKnight Laboratory; source: E. coli BL21(DE3), purified (Ni-NTA Agarose); not shown: GFP, N-terminal, kept

- Kd [2]: 81.3 nM
- stoichiometry N (karyopherin-β2 (Kapβ2)): 1
B3: MBP:PR18 (18 repeats of Pro-Arg) (peptide)
chain: PRPRPRPRPRPRPRPRPRPRPRPRPRPRPRPRPRPR
notes: proline:arginine poly-dipeptide from the C9orf72 repeat expansion; source: E. coli BL21(DE3), purified (amylose resin, cation exchange, gel filtration); not shown: MBP, N-terminal, kept
